Reference: article PMC7583084, “Biochemical Characterization of a Flavonoid O-methyltransferase from Perilla Leaves and Its Application in 7-Methoxyflavonoid Production” (Molecules, 2020)

Tests used:
Conditions in all cases: co-substrate SAM (100 µM in activity assay), 20 mM Tris-HCl pH 7.5, 37 °C, substrate 0.5-100 µM
purified protein = substrate: O=c1cc(-c2ccc(O)cc2)oc2cc(O)cc(O)c12; experiment: purified protein
[1] = substrate: O=C1C[C@@H](c2ccc(O)c(O)c2)Oc2cc(O)cc(O)c21; experiment: HPLC assay of 7-O-methylation; assay type: biochemical, Perilla frutescens
[2] = substrate: O=c1c(O)c(-c2ccc(O)cc2)oc2cc(O)cc(O)c12; experiment: HPLC assay of 7-O-methylation; assay type: biochemical, Perilla frutescens
[3] = substrate: O=c1cc(-c2ccccc2)oc2cc(O)cc(O)c12; experiment: HPLC assay of 7-O-methylation; assay type: biochemical, Perilla frutescens
[4] = substrate: O=c1cc(-c2ccc(O)c(O)c2)oc2cc(O)cc(O)c12; experiment: HPLC assay of 7-O-methylation; assay type: biochemical, Perilla frutescens
[5] = substrate: O=C1C[C@@H](c2ccc(O)cc2)Oc2cc(O)cc(O)c21; experiment: HPLC assay of 7-O-methylation; assay type: biochemical, Perilla frutescens

B1: PfOMT3 (Perilla frutescens) (protein)
chain: MKNSSTDEDLSIFAMQVATSSIVPRALKAVIELDLLEMMKKAGRPLSTSEMAAQIQATNPEAALMIDRILRVLIASNILECTTAASHGGAERLYSLAPVCKFFTKNDDGVSWAPLFLMIQDRVFTEAWDHVKDAIVEGGIPFNIAHGMSGFEYPATDPRYNKIFNQAMSDESTMFMHKILELYDGFDGLKSVVDVGGGIGASLKMIITKYPSIQAINFDLPHVIQNAPSHPGLEHRSGDMFVSVPTGDAILLKWIIHNWSDGHCLKLLKNCYEALPEKGKVIIADRILPETENYKEASASVDLAGDALMLTLFTGGKERAEAEFQALAKASGFKHFRKVCCAFSTWIMELYK
notes: primers encode MKNSSTD at start and IMELYK at end
B1 gave a Km (purified protein) of 3.72 ± 0.05 µM, a Vmax (purified protein) of 0.0133 µmol/min/mg and a kcat (purified protein) of 0.0091 s⁻¹. The kcat/Km (purified protein) was 2440 M⁻¹ s⁻¹, the Km [1] was 13.08 ± 1.42 µM and the Vmax [1] was 0.00784 µmol/min/mg. For the same protein, the kcat [1] was 0.00535 s⁻¹, the kcat/Km [1] was 409 M⁻¹ s⁻¹ and the Km [2] was 17.88 ± 0.49 µM. It also gave a Vmax [2] of 0.00581 µmol/min/mg, a kcat [2] of 0.00397 s⁻¹ and a kcat/Km [2] of 222 M⁻¹ s⁻¹. It also gave a Km [3] of 1.31 ± 0.25 µM, a Vmax [3] of 0.00205 µmol/min/mg and a kcat [3] of 0.0014 s⁻¹. The kcat/Km [3] was 1070 M⁻¹ s⁻¹, the Km [4] was 34.21 ± 4.65 µM and the Vmax [4] was 0.00418 µmol/min/mg. For the same protein, the kcat [4] was 0.00285 s⁻¹, the kcat/Km [4] was 83.4 M⁻¹ s⁻¹ and the Km [5] was 13.40 ± 1.29 µM. It also gave a Vmax [5] of 0.0517 µmol/min/mg, a kcat [5] of 0.0353 s⁻¹ and a kcat/Km [5] of 2630 M⁻¹ s⁻¹.
